Laboratory results as given in publication PMC12826058.
Where a chain is given by its changes, count along the chain named.

What was measured:
Experiment in all cases: SPR
[1] = tested on: His6-AdiY (Escherichia coli K-12 MG1655); settings: pH 6.0, phosphate; 1:4 DNA:protein; SPR (Biacore T200, SA chip), 25 C, 50 mM sodium phosphate pH 6.0-7.0 (50 mM citrate at pH 5.5 and 5.8), 250 mM NaCl, 2% glycerol, 2 mM DTT, 0.005% P20; 1:1 …
[2] = target: T1, His6-AdiY-H34A/H60A H34A;H60A (Escherichia coli K-12 MG1655) (UniProt P33234); settings: SPR (Biacore T200, SA chip), 25 C, 50 mM sodium phosphate pH 6.0-7.0 (50 mM citrate at pH 5.5 and 5.8), 250 mM NaCl, 2% glycerol, 2 mM DTT, 0.005% P20; 1:1 …
T1 sequence: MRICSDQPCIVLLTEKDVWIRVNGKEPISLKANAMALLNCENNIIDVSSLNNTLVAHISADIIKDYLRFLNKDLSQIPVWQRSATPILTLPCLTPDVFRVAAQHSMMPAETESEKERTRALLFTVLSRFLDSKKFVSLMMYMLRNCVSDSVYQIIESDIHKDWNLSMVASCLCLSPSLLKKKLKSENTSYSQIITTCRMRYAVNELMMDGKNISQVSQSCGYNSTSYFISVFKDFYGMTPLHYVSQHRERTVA

[3] = target: T2, His6-AdiY (Escherichia coli K-12 MG1655) (UniProt P33234); settings: SPR (Biacore T200, SA chip), 25 C, 50 mM sodium phosphate pH 6.0-7.0 (50 mM citrate at pH 5.5 and 5.8), 250 mM NaCl, 2% glycerol, 2 mM DTT, 0.005% P20; 1:1 …
T2 sequence: T1 sequence with A34H, A60H

| Substance | Kd [1] [nM] | binding [2] | Kd [3] [nM] | binding [3] |
| --- | --- | --- | --- | --- |
| PadiA (adiA promoter) | 170 | – | – | – |
| PadiC (adiC promoter) | 120 | – | – | – |
| TCTACGGTATGACGCCGCTGCATTATGTTAGTCAGCACAGAGAACGCACTGTCGCCTGATTTTTAACCTTAACGAAGAGCTATATTAATAACGGCATCAGCGATAACCCGGTCGATAATAATTCAACTATCGAATGCAGGCGTATGATATGACGTAATTTATTGTCACGAAGCTCGCCTTCGCAGGAGTTTAATT (double strand) [PadiC (adiC promoter)] | – | no binding | 120 | binds |
| TGCTTACCCGGTTATGAAGGAATCTTCGTTGCGGGCAAGTATCTTCCGGCCTTTTCGGGCTGTAAAGCGCGTGAAAAACAAACATTTTTGAAATATTTAGTTTTATAAACAATACGTTATGTGATTATTTTAAATTATTTTCACTGCTTATTATCGACGGCTAAACTATTTTTTTGGCTGATACTGATATCGTCT (double strand) [PadiA (adiA promoter)] | – | no binding | 170 | binds |
